Biological target: the molecule itself
Assay: SEC; size-exclusion chromatography of recombinant YwlG

B1: recombinant YwlG (natural protein, S. aureus)
chain: KDLTMLLDELKDMSFFNKGDICLIGCSTSEVIGEKIGTVGSMEVAETIFNALDVVSKETGVTFAFQGCEHINRAITIEKSQYNPLTMEEVSVVPDVHAGGSLATYAFQHMKDPIVVEHITVPCGIDIGQTLIGMHIKHVCVPVRTSVKQVGQAIVTIATSRPKKIGGERAKYQ
modifications: C69 was oxidized in the crystals
notes: YwlG of Staphylococcus aureus, 174 a.a., locus tag SAUSA300_2068; also called S. aureus YwlG; source: E. coli, purified (described in SI Appendix)
- stoichiometry N: 6
